Experimental data from paper PMC13601591 (Nature Communications, 2026).

Target: the molecule itself
Assay: SDS-resistant oligomer on SDS-PAGE and immunoblot

B1: fh1-HAP2-HA (HAP2 with W173A and F177A mutations in the fusion loop) (natural protein, Chlamydomonas reinhardtii, UniProt A4GRC6 23-1139, looked up)
chain: EVIASGRLEKCVVDGVTEELDCQEKVVVTLTVGNGQSLQTEALEFSLSCLNSPDGRCPCSCSAADPTCACRDLAAPLRVSLTKSPLWASYPLQYLSSFNWKPLEVILRPSNKVCKDGDWEDSPTCGWFSQGGVRVADSQGFCCECSSSQVADDTAGSSKERTRANLDCDFWSDPLDILIGRKPVSAHCLTFDPQWYSGYELGAASLQFEIAITVEVPTAPSPTTATTSATPRTNNSSSANSTNSTNSPAPQFLSPPAPSTREVLHLGPSVPLASSASRLLSAKLLGDLAMYTQLPAISNQVLMVPQPPAAAAATGSPLDATLATNRSAWMLLDKTMLSMDGLACDKVGTGFSAFRYQPSGCGRAPQACLSGQLKDLWEADLARIADGRVPLYMITRFTGGSDTTLQSFSGGPLSFALPVTSHSQSLVTLSVAADGVRLVTNRSPGKITGAAVCRFAGTSCGGFEAVAARGYIYVNITNTGRLDSDYTLTVSNCSSNVRPIEARTLAVRAGSAASLDPPMELYVEDQAAAAARTCTVSLYDSVGAVTDSLTLSFYTNATQLVVKPSGGYNGTGDGAGVKRNGTDCSTACTNPIDVLCFVTKKCWSKFGRLLGIIGGALVGLGLLAVALKFGWLASLAASCCGGGGGAAAGGAGGGMGLGTGGGGGCFGGGQQQQQLPPAASHAMSPPQQQQRSHAEVAAGAAVAGAGAAGAAAAVLGAKHGGGGGGARGKQQHADTRHLQDRDSRAIDGGASIGSSSAGGSSSLSSYSQPREAGGRLLQPPAAAVFVPEGGGGGAAGDEGARAQSSDWDARGRSPRVADEHGSPRQRYDGVRQSPYMVSANPYDGWYDGGSGGGGGGGGGGYGREAPPPQGPPPHPVGAPPPPPRRRSLWERMWLQRPGGGGGGGGGGGGGGGGGSGGGVDQHGGRSCADAARRGGGGPGGMRGVEGLMSNGGRPNGPHPHAPPPPPPPQQQQQQQRQRRSFLESLTAMMTLPWGGGREEEAGGDRRGGGRGGAAAAHGGRGAGGGRGHPPSIGSPPPGPLQPPEYGPQGGQARRWGAGGGRGGVGGDGGGGGVGAAAYVQLSTGGRGGGGGGGRGRGGGREGPTWHNPVYDWQAPPK
With B1 as the protein, how does the “stoichiometry N” value read?
The value was 3.
